The data set concerns the target A3A(E72A) (Homo sapiens, UniProt P31941 1-199, E72A). Kind of data set: fluorescence anisotropy; pH 6.0; 50 mM MES pH 6.0, 100 mM NaCl, 0.5 mM TCEP, room temperature overnight, 10 nM TAMRA-oligo; competition with 300 nM A3A(E72A); pH series: acetate 4.0-5.0, MES 5.5-6.5, HEPES 7.0-8.0, Tris 8.5-9.0. To be noted: protein: recombinant; tags: His6-SUMO removed by Ulp1 (untagged); label: 5' TAMRA; hairpin.

Chain of A3A(E72A) (P31941 whole entry E72A): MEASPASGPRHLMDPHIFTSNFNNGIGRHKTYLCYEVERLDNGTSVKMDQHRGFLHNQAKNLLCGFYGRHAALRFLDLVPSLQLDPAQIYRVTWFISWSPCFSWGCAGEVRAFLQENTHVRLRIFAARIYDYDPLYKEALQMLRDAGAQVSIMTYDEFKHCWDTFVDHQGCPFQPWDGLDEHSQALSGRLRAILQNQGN

Regarding GCCATCATTCGATGGG (structured_DNA) [Hairpin-TTC], the dissociation constant Kd is 26 ± 2 nM.
